Read-outs that look alike come from different tables or passages of the source.
B1: COX-2 3'-UTR U-2 (ssRNA)
RNA: AAGUCUAAUGAUCAUAUUUAUUUAUUUAUAUGAACCAUGUCUAUUAAUUUAAUUAUUUAAUAAUAUUUAUAUUAAACUCCUUAUGUUACUUAACAUCUUCUGUAACAGAAGUCAGUACUCCUGUUGCGGAGAAAGGAGUCAUACUUGUGAAGACUUUUAUGUCACUACUCUAAAGAUUUUGCUGUUGC
B2: COX-2 3'-UTR U-1 (ssRNA)
RNA: AAGUCUAAUGAUCAUAUUUAUUUAUUUAUAUGAACCAUGUCUAUUAAUUUAAUUAUUUAAUAAUAUUUAUAUUAAACUCCUUAUGUUACUUAACAUCUUCUGUAACAGAAGUCAGUACUCCUGUUGCGGAGAAAGGAGUCAUACUUGUGA
B3: COX-2 3'-UTR U-4 (ssRNA)
RNA: UGUAACAGAAGUCAGUACUCCUGUUGCGGAGAAAGGAGUCAUACUUGUGAAGACUUUUAUGUCACUACUCUAAAGAUUUUGCUGUUGCUGUUAAGUUUGG
B4: negative control NC RNA (ssRNA)
RNA: CAUAGCUCAUUAUACCCUCCUGGGCUCAAGCAAUCCCCCUAACUCUGCCUCCCCAGUAGCUAGGACCACAGGCAUACACC
B5: COX-2 3'-UTR U-3 (ssRNA)
RNA: GCGGAGAAAGGAGUCAUACUUGUGAAGACUUUUAUGUCACUACUCUAAAGAUUUUGCUGUUGCUGUUAAGUUUGGAAAACAGUUUUUAUUCUGUUUUAUAAACCAGAGAGAAAUGAGUUUUGACGUCUUUUUACUUGAAUUUCAACUUAUAUUAUAAGGACGAAAGUAAAGAUGUUUGAAUACUUAAACACUAUCACAAGAUGCCAA

Columns and labels:
Assay in all cases: SPR
HuR = HuR (UniProt Q15717 1-326)
Chain of HuR (Q15717 whole entry): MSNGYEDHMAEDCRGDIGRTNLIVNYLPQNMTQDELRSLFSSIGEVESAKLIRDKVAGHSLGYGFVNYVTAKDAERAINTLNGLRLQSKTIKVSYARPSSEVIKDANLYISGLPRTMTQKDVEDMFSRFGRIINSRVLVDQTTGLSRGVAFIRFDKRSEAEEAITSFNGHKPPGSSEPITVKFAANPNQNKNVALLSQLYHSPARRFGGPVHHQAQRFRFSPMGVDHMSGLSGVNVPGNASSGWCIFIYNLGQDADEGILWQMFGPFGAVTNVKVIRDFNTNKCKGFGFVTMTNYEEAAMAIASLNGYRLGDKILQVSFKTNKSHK

beta-catenin FL [1] = molecular target: T1, beta-catenin FL (UniProt P35222 1-781)
T1 sequence (P35222 whole entry): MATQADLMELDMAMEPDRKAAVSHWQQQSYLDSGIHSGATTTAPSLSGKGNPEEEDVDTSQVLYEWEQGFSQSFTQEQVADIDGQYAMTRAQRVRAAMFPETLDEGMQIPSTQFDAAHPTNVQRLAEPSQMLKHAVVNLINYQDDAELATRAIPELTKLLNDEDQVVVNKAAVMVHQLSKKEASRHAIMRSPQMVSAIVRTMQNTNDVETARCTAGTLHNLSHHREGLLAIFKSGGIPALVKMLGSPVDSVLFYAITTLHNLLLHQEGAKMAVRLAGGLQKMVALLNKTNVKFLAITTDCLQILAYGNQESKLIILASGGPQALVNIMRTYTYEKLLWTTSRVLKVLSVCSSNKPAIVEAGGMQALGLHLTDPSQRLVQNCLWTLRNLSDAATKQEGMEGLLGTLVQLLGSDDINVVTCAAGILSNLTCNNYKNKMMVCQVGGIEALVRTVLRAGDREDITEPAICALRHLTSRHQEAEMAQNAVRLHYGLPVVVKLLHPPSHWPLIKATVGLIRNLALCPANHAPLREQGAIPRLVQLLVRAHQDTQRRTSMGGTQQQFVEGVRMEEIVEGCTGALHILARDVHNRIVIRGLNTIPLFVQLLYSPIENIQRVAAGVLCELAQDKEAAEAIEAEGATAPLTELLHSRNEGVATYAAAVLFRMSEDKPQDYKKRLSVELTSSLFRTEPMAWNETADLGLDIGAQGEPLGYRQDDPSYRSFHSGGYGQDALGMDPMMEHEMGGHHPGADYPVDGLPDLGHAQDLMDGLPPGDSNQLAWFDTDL

beta-catenin FL [2] = molecular target: T1, beta-catenin FL; remark: listed apart in the source
beta-catenin FL [3] = molecular target: T1, beta-catenin FL; remark: listed apart in the source

Binder	Kd (HuR) [nM]	Kd (beta-catenin FL [1]) [nM]	Kd (beta-catenin FL [2]) [nM]	binding result (beta-catenin FL [3])
B1	81.3	158		
B2	33.4			
B3	3510		131	
B4				no binding
B5		2600		

Reference: publication PMC3413138
